Test results reported in patent US20210388087A1 (Chugai, published 2021).

T1: Human CD3eg linker (human)
T1 construct: Single chain: epsilon and gamma subunits of human CD3 joined by a 29-mer linker, Flag-tag at the C-terminus; also called recombinant human CD3
T1 chain: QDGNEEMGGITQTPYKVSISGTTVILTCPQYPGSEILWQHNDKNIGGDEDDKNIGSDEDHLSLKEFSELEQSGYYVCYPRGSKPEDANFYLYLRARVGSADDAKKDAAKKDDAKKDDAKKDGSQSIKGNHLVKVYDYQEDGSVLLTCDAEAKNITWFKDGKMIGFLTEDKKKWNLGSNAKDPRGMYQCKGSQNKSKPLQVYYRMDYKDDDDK


Molecular target: T1, Human CD3eg linker
Experiment: Biacore SPR, vs template H183/L072

fold change of affinity [fold]	Binder
0.9	H183/L072 VH Q50Y (antibody, name in Kabat numbering, V domains shown) VH: QVQLVESGGGLVQPGRSLRLSCAASGFTFSNAWMHWVRQAPGKGLEWVAYIKDKGNAYAAYYAPSVKGRFTISRDDSKNSIYLQMNSLKTEDTAVYYCHYVHYASASTVLPAFGVDAWGQGTTVTVSS VL: DIVMTQSPLSLPVTPGEPASISCQASQELVHMNRNTYLHWYQQKPGQAPRLLIYKVSNRFPGVPDRFSGSGSGTDFTLKISRVEAEDVGVYYCAQGTSVPFTFGQGTKLEIK
0.8	H183/L072 VH S30I (antibody, name in Kabat numbering, V domains shown) VH: QVQLVESGGGLVQPGRSLRLSCAASGFTFINAWMHWVRQAPGKGLEWVAQIKDKGNAYAAYYAPSVKGRFTISRDDSKNSIYLQMNSLKTEDTAVYYCHYVHYASASTVLPAFGVDAWGQGTTVTVSS VL: DIVMTQSPLSLPVTPGEPASISCQASQELVHMNRNTYLHWYQQKPGQAPRLLIYKVSNRFPGVPDRFSGSGSGTDFTLKISRVEAEDVGVYYCAQGTSVPFTFGQGTKLEIK
0.8	H183/L072 VH S30L (antibody, name in Kabat numbering, V domains shown) VH: QVQLVESGGGLVQPGRSLRLSCAASGFTFLNAWMHWVRQAPGKGLEWVAQIKDKGNAYAAYYAPSVKGRFTISRDDSKNSIYLQMNSLKTEDTAVYYCHYVHYASASTVLPAFGVDAWGQGTTVTVSS VL: DIVMTQSPLSLPVTPGEPASISCQASQELVHMNRNTYLHWYQQKPGQAPRLLIYKVSNRFPGVPDRFSGSGSGTDFTLKISRVEAEDVGVYYCAQGTSVPFTFGQGTKLEIK
0.8	H183/L072 VH S30A (antibody, name in Kabat numbering, V domains shown) VH: QVQLVESGGGLVQPGRSLRLSCAASGFTFANAWMHWVRQAPGKGLEWVAQIKDKGNAYAAYYAPSVKGRFTISRDDSKNSIYLQMNSLKTEDTAVYYCHYVHYASASTVLPAFGVDAWGQGTTVTVSS VL: DIVMTQSPLSLPVTPGEPASISCQASQELVHMNRNTYLHWYQQKPGQAPRLLIYKVSNRFPGVPDRFSGSGSGTDFTLKISRVEAEDVGVYYCAQGTSVPFTFGQGTKLEIK
0.9	H183/L072 VH S30K (antibody, name in Kabat numbering, V domains shown) VH: QVQLVESGGGLVQPGRSLRLSCAASGFTFKNAWMHWVRQAPGKGLEWVAQIKDKGNAYAAYYAPSVKGRFTISRDDSKNSIYLQMNSLKTEDTAVYYCHYVHYASASTVLPAFGVDAWGQGTTVTVSS VL: DIVMTQSPLSLPVTPGEPASISCQASQELVHMNRNTYLHWYQQKPGQAPRLLIYKVSNRFPGVPDRFSGSGSGTDFTLKISRVEAEDVGVYYCAQGTSVPFTFGQGTKLEIK
1.4	H183/L072 VH S62A (antibody, name in Kabat numbering, V domains shown) VH: QVQLVESGGGLVQPGRSLRLSCAASGFTFSNAWMHWVRQAPGKGLEWVAQIKDKGNAYAAYYAPAVKGRFTISRDDSKNSIYLQMNSLKTEDTAVYYCHYVHYASASTVLPAFGVDAWGQGTTVTVSS VL: DIVMTQSPLSLPVTPGEPASISCQASQELVHMNRNTYLHWYQQKPGQAPRLLIYKVSNRFPGVPDRFSGSGSGTDFTLKISRVEAEDVGVYYCAQGTSVPFTFGQGTKLEIK
0.7	H183/L072 VH S30M (antibody, name in Kabat numbering, V domains shown) VH: QVQLVESGGGLVQPGRSLRLSCAASGFTFMNAWMHWVRQAPGKGLEWVAQIKDKGNAYAAYYAPSVKGRFTISRDDSKNSIYLQMNSLKTEDTAVYYCHYVHYASASTVLPAFGVDAWGQGTTVTVSS VL: DIVMTQSPLSLPVTPGEPASISCQASQELVHMNRNTYLHWYQQKPGQAPRLLIYKVSNRFPGVPDRFSGSGSGTDFTLKISRVEAEDVGVYYCAQGTSVPFTFGQGTKLEIK
0.8	H183/L072 VH S30V (antibody, name in Kabat numbering, V domains shown) VH: QVQLVESGGGLVQPGRSLRLSCAASGFTFVNAWMHWVRQAPGKGLEWVAQIKDKGNAYAAYYAPSVKGRFTISRDDSKNSIYLQMNSLKTEDTAVYYCHYVHYASASTVLPAFGVDAWGQGTTVTVSS VL: DIVMTQSPLSLPVTPGEPASISCQASQELVHMNRNTYLHWYQQKPGQAPRLLIYKVSNRFPGVPDRFSGSGSGTDFTLKISRVEAEDVGVYYCAQGTSVPFTFGQGTKLEIK
0.7	H183/L072 VH S30N (antibody, name in Kabat numbering, V domains shown) VH: QVQLVESGGGLVQPGRSLRLSCAASGFTFNNAWMHWVRQAPGKGLEWVAQIKDKGNAYAAYYAPSVKGRFTISRDDSKNSIYLQMNSLKTEDTAVYYCHYVHYASASTVLPAFGVDAWGQGTTVTVSS VL: DIVMTQSPLSLPVTPGEPASISCQASQELVHMNRNTYLHWYQQKPGQAPRLLIYKVSNRFPGVPDRFSGSGSGTDFTLKISRVEAEDVGVYYCAQGTSVPFTFGQGTKLEIK
0.8	H183/L072 VH S30Q (antibody, name in Kabat numbering, V domains shown) VH: QVQLVESGGGLVQPGRSLRLSCAASGFTFQNAWMHWVRQAPGKGLEWVAQIKDKGNAYAAYYAPSVKGRFTISRDDSKNSIYLQMNSLKTEDTAVYYCHYVHYASASTVLPAFGVDAWGQGTTVTVSS VL: DIVMTQSPLSLPVTPGEPASISCQASQELVHMNRNTYLHWYQQKPGQAPRLLIYKVSNRFPGVPDRFSGSGSGTDFTLKISRVEAEDVGVYYCAQGTSVPFTFGQGTKLEIK
1.1	H183/L072 VH S30T (antibody, name in Kabat numbering, V domains shown) VH: QVQLVESGGGLVQPGRSLRLSCAASGFTFTNAWMHWVRQAPGKGLEWVAQIKDKGNAYAAYYAPSVKGRFTISRDDSKNSIYLQMNSLKTEDTAVYYCHYVHYASASTVLPAFGVDAWGQGTTVTVSS VL: DIVMTQSPLSLPVTPGEPASISCQASQELVHMNRNTYLHWYQQKPGQAPRLLIYKVSNRFPGVPDRFSGSGSGTDFTLKISRVEAEDVGVYYCAQGTSVPFTFGQGTKLEIK
1	H183/L072 VH S30D (antibody, name in Kabat numbering, V domains shown) VH: QVQLVESGGGLVQPGRSLRLSCAASGFTFDNAWMHWVRQAPGKGLEWVAQIKDKGNAYAAYYAPSVKGRFTISRDDSKNSIYLQMNSLKTEDTAVYYCHYVHYASASTVLPAFGVDAWGQGTTVTVSS VL: DIVMTQSPLSLPVTPGEPASISCQASQELVHMNRNTYLHWYQQKPGQAPRLLIYKVSNRFPGVPDRFSGSGSGTDFTLKISRVEAEDVGVYYCAQGTSVPFTFGQGTKLEIK
1	H183/L072 VH S30H (antibody, name in Kabat numbering, V domains shown) VH: QVQLVESGGGLVQPGRSLRLSCAASGFTFHNAWMHWVRQAPGKGLEWVAQIKDKGNAYAAYYAPSVKGRFTISRDDSKNSIYLQMNSLKTEDTAVYYCHYVHYASASTVLPAFGVDAWGQGTTVTVSS VL: DIVMTQSPLSLPVTPGEPASISCQASQELVHMNRNTYLHWYQQKPGQAPRLLIYKVSNRFPGVPDRFSGSGSGTDFTLKISRVEAEDVGVYYCAQGTSVPFTFGQGTKLEIK
1.2	H183/L072 VH S30Y (antibody, name in Kabat numbering, V domains shown) VH: QVQLVESGGGLVQPGRSLRLSCAASGFTFYNAWMHWVRQAPGKGLEWVAQIKDKGNAYAAYYAPSVKGRFTISRDDSKNSIYLQMNSLKTEDTAVYYCHYVHYASASTVLPAFGVDAWGQGTTVTVSS VL: DIVMTQSPLSLPVTPGEPASISCQASQELVHMNRNTYLHWYQQKPGQAPRLLIYKVSNRFPGVPDRFSGSGSGTDFTLKISRVEAEDVGVYYCAQGTSVPFTFGQGTKLEIK
1.3	H183/L072 VH S30W (antibody, name in Kabat numbering, V domains shown) VH: QVQLVESGGGLVQPGRSLRLSCAASGFTFWNAWMHWVRQAPGKGLEWVAQIKDKGNAYAAYYAPSVKGRFTISRDDSKNSIYLQMNSLKTEDTAVYYCHYVHYASASTVLPAFGVDAWGQGTTVTVSS VL: DIVMTQSPLSLPVTPGEPASISCQASQELVHMNRNTYLHWYQQKPGQAPRLLIYKVSNRFPGVPDRFSGSGSGTDFTLKISRVEAEDVGVYYCAQGTSVPFTFGQGTKLEIK
1.1	H183/L072 VH S30G (antibody, name in Kabat numbering, V domains shown) VH: QVQLVESGGGLVQPGRSLRLSCAASGFTFGNAWMHWVRQAPGKGLEWVAQIKDKGNAYAAYYAPSVKGRFTISRDDSKNSIYLQMNSLKTEDTAVYYCHYVHYASASTVLPAFGVDAWGQGTTVTVSS VL: DIVMTQSPLSLPVTPGEPASISCQASQELVHMNRNTYLHWYQQKPGQAPRLLIYKVSNRFPGVPDRFSGSGSGTDFTLKISRVEAEDVGVYYCAQGTSVPFTFGQGTKLEIK
0.8	H183/L072 VH S30R (antibody, name in Kabat numbering, V domains shown) VH: QVQLVESGGGLVQPGRSLRLSCAASGFTFRNAWMHWVRQAPGKGLEWVAQIKDKGNAYAAYYAPSVKGRFTISRDDSKNSIYLQMNSLKTEDTAVYYCHYVHYASASTVLPAFGVDAWGQGTTVTVSS VL: DIVMTQSPLSLPVTPGEPASISCQASQELVHMNRNTYLHWYQQKPGQAPRLLIYKVSNRFPGVPDRFSGSGSGTDFTLKISRVEAEDVGVYYCAQGTSVPFTFGQGTKLEIK
0.6	H183/L072 VH S30E (antibody, name in Kabat numbering, V domains shown) VH: QVQLVESGGGLVQPGRSLRLSCAASGFTFENAWMHWVRQAPGKGLEWVAQIKDKGNAYAAYYAPSVKGRFTISRDDSKNSIYLQMNSLKTEDTAVYYCHYVHYASASTVLPAFGVDAWGQGTTVTVSS VL: DIVMTQSPLSLPVTPGEPASISCQASQELVHMNRNTYLHWYQQKPGQAPRLLIYKVSNRFPGVPDRFSGSGSGTDFTLKISRVEAEDVGVYYCAQGTSVPFTFGQGTKLEIK
1	H183/L072 VH S30F (antibody, name in Kabat numbering, V domains shown) VH: QVQLVESGGGLVQPGRSLRLSCAASGFTFFNAWMHWVRQAPGKGLEWVAQIKDKGNAYAAYYAPSVKGRFTISRDDSKNSIYLQMNSLKTEDTAVYYCHYVHYASASTVLPAFGVDAWGQGTTVTVSS VL: DIVMTQSPLSLPVTPGEPASISCQASQELVHMNRNTYLHWYQQKPGQAPRLLIYKVSNRFPGVPDRFSGSGSGTDFTLKISRVEAEDVGVYYCAQGTSVPFTFGQGTKLEIK
0.3	H183/L072 VH S30P (antibody, name in Kabat numbering, V domains shown) VH: QVQLVESGGGLVQPGRSLRLSCAASGFTFPNAWMHWVRQAPGKGLEWVAQIKDKGNAYAAYYAPSVKGRFTISRDDSKNSIYLQMNSLKTEDTAVYYCHYVHYASASTVLPAFGVDAWGQGTTVTVSS VL: DIVMTQSPLSLPVTPGEPASISCQASQELVHMNRNTYLHWYQQKPGQAPRLLIYKVSNRFPGVPDRFSGSGSGTDFTLKISRVEAEDVGVYYCAQGTSVPFTFGQGTKLEIK
